2 molecules from patent US20100120124A1 (CONSEJO SUPERIOR DE INVESTIGACIONES CIENTIFICAS, published 2010) can be followed below.

Assay [1] addresses T1, α-amylase (pig pancreatic enzyme α-amylase, Sigma) (pig, UniProt P00690 16-511).
T1 sequence: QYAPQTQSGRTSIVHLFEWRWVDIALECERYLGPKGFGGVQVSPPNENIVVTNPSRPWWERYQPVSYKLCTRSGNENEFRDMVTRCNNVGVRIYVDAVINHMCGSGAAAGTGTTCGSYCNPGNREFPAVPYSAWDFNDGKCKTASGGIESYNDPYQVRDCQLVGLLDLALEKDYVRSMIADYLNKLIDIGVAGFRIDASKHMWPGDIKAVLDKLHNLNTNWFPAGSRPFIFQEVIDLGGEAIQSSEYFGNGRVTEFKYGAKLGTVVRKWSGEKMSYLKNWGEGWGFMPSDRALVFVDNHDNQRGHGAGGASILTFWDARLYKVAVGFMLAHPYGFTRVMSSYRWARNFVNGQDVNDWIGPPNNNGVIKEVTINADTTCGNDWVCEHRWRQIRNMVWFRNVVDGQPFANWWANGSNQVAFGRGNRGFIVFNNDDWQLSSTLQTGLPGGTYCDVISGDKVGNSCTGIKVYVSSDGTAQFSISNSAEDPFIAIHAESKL
The assay is described as follows: ELISA, supernatant of EPEC culture on coated antigen, anti-E-tag-POD. (In general: An ELISA detects its analyte on a solid surface through an enzyme-linked reagent.)

The target of assay [2] is T2, bovine seroalbumin (BSA, Roche) (bovine, UniProt P02769 25-607).
T2 construct: also called bovine albumin
T2 sequence (P02769 25-607 limits assumed): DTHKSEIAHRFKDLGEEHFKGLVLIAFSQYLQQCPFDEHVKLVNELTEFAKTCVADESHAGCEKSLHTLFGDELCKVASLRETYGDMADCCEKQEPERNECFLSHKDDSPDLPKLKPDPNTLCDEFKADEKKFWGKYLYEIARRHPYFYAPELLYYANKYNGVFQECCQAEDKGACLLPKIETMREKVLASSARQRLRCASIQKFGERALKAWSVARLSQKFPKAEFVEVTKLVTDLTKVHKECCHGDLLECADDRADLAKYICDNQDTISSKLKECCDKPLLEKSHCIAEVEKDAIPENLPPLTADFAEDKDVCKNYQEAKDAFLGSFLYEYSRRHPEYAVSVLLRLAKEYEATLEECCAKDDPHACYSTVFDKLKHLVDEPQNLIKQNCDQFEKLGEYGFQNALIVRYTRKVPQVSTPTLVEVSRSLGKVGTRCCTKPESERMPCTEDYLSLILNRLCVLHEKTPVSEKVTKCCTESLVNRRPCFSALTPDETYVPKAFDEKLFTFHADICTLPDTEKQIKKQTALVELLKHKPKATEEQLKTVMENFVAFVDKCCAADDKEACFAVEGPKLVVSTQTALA
Described as above.

B1: fusion antibody EspF-Vamy (EspF20 signal fused to camel VHH anti-amylase with C-terminal 6xhis and E-tag) (VHH)
VHH: QVQLVESWGGSVQAGGSLRLSCTAPGFTSNSCRMDWYRQAAGKQREWVSSISTDGRTSYADSVKGRFTISKDKAKDTVYLQMNSLKPEDTAIYYCAVRTNGYRPQSHEFRYWGPGTQVTVSS
notes: also called EspF20-Vamy; product of plasmid pEspFVamy
As for B1, the binding result was “binds” in assay [1] and “no binding” in assay [2].

B2: fusion antibody EspF-Vgfp (EspF20 signal fused to camel VHH anti-GFP with C-terminal 6xhis and E-tag) (VHH)
VHH: QVQLVESGGALVQPGGSLRLSCAASGFPVNRYSMRWYRQAPGKEREWVAGMSSAGDRSSYEDSVKGRFTISRDDARNTVYLQMNSLKPEDTAVYYCNVNVGFEYWGQGTQVTVSS
notes: also called product of plasmid pEspFVgfp
With B2, the binding result in assay [1] and in assay [2] was “no binding” in each case.
